According to US20240189443A1, “PD-L1 AND TLR7 DOUBLE-TARGETING NANOBODY COUPLING DRUG AND USE THEREOF IN ANTI-TUMOR” (SHANGHAI INSTITUTE OF MATERIA MEDICA, CHINESE ACADEMY OF …, priority 2021, published 2024):
Where “and” joins values, the source holds several entries; their conditions need not be identical. Equal values may be shown once.

What was measured:
[1] = test system: induced high-expression PD-L1 CT26 tumor cell; test: Combined anti-tumor effect of Nb16 and SZU-101, IFN-γ-induced CT26 subcutaneous tumor model; format: in vivo, BALB/c mouse; conditions: Nb16 10 mg/kg intraperitoneal, SZU-101 3 mg/kg peritumoral
Protocol: The mouse CT26 tumor cells were recovered and passaged, it was ensured that tumor cells at least have been subjected to 3 generations during tumor-bearing, and mouse IFN-γ with a final concentration of 100 ng/mL was used to induce tumor cells for 24 h before tumor-bearing, so that the cell surface thereof highly expresses PD-L1; the induced high-expression PD-L1 CT26 tumor cell was inoculated subcutaneously into a female BALB/c mouse, wherein the inoculation amount was 1×10^6 cells/one; and randomly grouping mice into four groups (9 per group), i.e., a same-type control group (mFc), a nano-antibody Nb16 group (Nb16), a TLR7 agonist SZU-101 group (SZU-101) and a combined treatment group (NB16/SZU-101), wherein the administration amount of the mFc and the Nb16 was 10 mg/kg, and intraperitoneal administration was performed; and the administration amount of the SZU-101 was 3 mg/kg, and the tumor was administered circumferentially. The administration cycle were Nb16 administered on D1, D5, D9, D12, and D14 and SZU-101 administered on D9-D14 (3A). The body weight of the mouse and the tumor major diameter (L) and the short diameter (W) in the administration cycle were observed and recorded until the anatomical endpoint, and the tumor volume V=(L×W×W)/2 was calculated, a tumor growth curve was drawed, and the tumor inhibition rate was calculated; and the experiment was terminated on the fifteenth day. After performing euthanasia, the animal was dissected, and the subcutaneous tumor was taken out.

PD-1/PD-L1 = PD-1/PD-L1 (Mus musculus, UniProt Q9EP73); test: In vitro activity of candidate nanobodies NB9, NB10, NB11, NB17 (blocking or non-blocking type); format: binding
HEK293T/hPD-L1 = target: T1, HEK293T/hPD-L1 (Homo sapiens, UniProt Q9NZQ7); test: Human PD-L1 binding activity assay of candidate anti-human PD-L1 nanobodies (flow cytometry); conditions: nanobody 10 μg/mL
T1 construct: expressed in transfected cells; host or cells: HEK293T
Protocol: The cell strain HEK293T/hPD-L1 was digested, and centrifugationwas performed to remove the supernatant; the cells were washed one time with PBS and the cell density was adjusted to 2.5×10^6 cells/mL; each cell sample was added to a 100 μL cell suspension, that is, a 2.5×10^5 cell/sample was comprised; different anti-human PD-L1 candidate nanobodies (the concentration is 10 μg/mL) were respectively added to the samples; incubating for 20 min at 4° C.; centrifuging, removing supernatant, and the cells were washing once with PBS; using diluted antibody anti-human IgG Fc (FITC) as secondary antibody, and the cells were re-suspended; incubating at 4° C. for 20 min; centrifuging, removing supernatant, the cells were washing twice with PBS, and transferred to a flow tube; and was performed on-machine detection by using a flow cytometer to obtain the binding activity of the candidate nanobody and human PD-L1, as shown in FIG. 13.

[2] = target: T2, human PD-1/PD-L1 (HEK293T/hPD-L1) (Homo sapiens, UniProt Q9NZQ7); test: Human PD-1/PD-L1 blocking activity assay of candidate anti-human PD-L1 nanobodies (flow cytometry); format: binding; conditions: nanobody 10 μg/mL, human PD-1-his 1 μg/mL
T2 construct: expressed in transfected cells; host or cells: HEK293T
Protocol: The cell strain HEK293T/hPD-L1 was digested, and centrifugationwas performed to remove the supernatant; the cells were washed one time with PBS and the cell density was adjusted to 2.5×10^6 cells/mL; each cell sample was added to a 100 μL cell suspension, that is, a 2.5×10^5 cell/sample was comprised; and the human PD-1-his protein (the concentration was 1 μg/mL) and the anti-human PD-L1 candidate nanobody (the concentration was 10 μg/mL) were respectively added to the sample; the cells were incubated for 20 min at 4° C.; centrifuging, supernatant was removed, and the cells were washed once with PBS; using diluted antibody anti-his-APC as secondary antibody, and the cells were re-suspended; incubated at 4° C. for 20 min; centrifuging, supernatant was removed, the cells were washedtwice with PBS, and was transferred to a flow tube; and was performed on-machine detection by using a flow cytometer to obtain the PD-1/PD-L1 blocking activity of the candidate nanobody, as shown in FIG. 14.

PD-1/PD-L1, sequence (Q9EP73 19-239): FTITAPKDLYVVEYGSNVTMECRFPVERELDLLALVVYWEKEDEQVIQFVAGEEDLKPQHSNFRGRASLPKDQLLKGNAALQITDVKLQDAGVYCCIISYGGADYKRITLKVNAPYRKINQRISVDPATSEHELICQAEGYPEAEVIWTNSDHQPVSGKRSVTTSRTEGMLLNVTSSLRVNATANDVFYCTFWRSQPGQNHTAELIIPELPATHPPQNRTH
T2 sequence (Q9NZQ7 19-290): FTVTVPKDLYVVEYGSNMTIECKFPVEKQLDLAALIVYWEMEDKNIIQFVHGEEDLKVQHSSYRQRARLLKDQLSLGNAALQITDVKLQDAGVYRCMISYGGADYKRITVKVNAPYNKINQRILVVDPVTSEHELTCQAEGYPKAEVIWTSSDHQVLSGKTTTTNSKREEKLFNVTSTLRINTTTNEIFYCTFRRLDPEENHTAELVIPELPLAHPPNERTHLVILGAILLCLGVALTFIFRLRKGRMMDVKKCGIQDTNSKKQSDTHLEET
T1 sequence (Q9NZQ7 19-290): as above

## COCCOc1nc(N)c2nc(O)n(Cc3ccc(CNC(=O)CCC(=O)O)cc3)c2n1 [SZU-101]
[1]
  Anti-tumor effect: significantly inhibit tumor growth
[1]; day 15
  Tumor inhibitory rate: 49%
[1]; individual mice, day 15
  Endpoint tumor Weight: 0.298 g and 0.560 g and 0.330 g and 0.278 g and 0.354 g and 0.516 g and 0.286 g and 0.328 g and 0.426 g

B1: Nb9: anti-PD-L1 nanobody, VHH SEQ ID NO: 5 (protein)
VHH: QVQLQESGGGLVHPGGSLRLSCAASGFTFSSYTMRWVRQAPGKGLEWVSGINNVGGSTLYADSVKGRFTISRDNAKNTLYLQMNSLQPDDTAMYYCATGIIGSGLETATYRGQGTQVTVSS
modifications: Nb9 Amino acid sequence of VHH
PD-1/PD-L1
  Blocking type or non-blocking type nanobody: blocking type

B2: Nb17: anti-PD-L1 nanobody, VHH SEQ ID NO: 17 (protein)
VHH: QVQLQESGGGSVQAGGSLRLSCAASGYSARRRMGWFRQAPGKEREGVASIYTAGGRTWYADSVKGRFTISQDNAKNTVYLQMNSLKPDDTAMYYCAASPAPYGAESLSEADFAYWGQGTQVTVSS
modifications: Nb17 Amino acid sequence of VHH
PD-1/PD-L1
  Blocking type or non-blocking type nanobody: non-blocking

B3: Nb11: anti-PD-L1 nanobody, VHH SEQ ID NO: 13 (protein)
VHH: QVQLQESGGGSVQAEGSLRLSCSAPIYVTYYGTYCMGWFRQAPGKEREGVAGISGDGRTSYADSVKGRFTVSKDNAKNTLYLEMNSLKPEDTAMYYCALRIGGYCDTLNGADFRYWGQGTQVTVSS
modifications: Nb11 Amino acid sequence of VHH
PD-1/PD-L1
  Blocking type or non-blocking type nanobody: non-blocking

B4: h_Nb1: anti-human PD-L1 nanobody, VHH SEQ ID NO: 21 (protein)
VHH: DVQLQESGGGLVQPGGSLRLSCAASGFTFSSYAMSWVRQAPGKGLEWVSDINSGGDNTDYADSVKGRFTISRDNAKNTLYLQMNSLKPEDTAVYYCARGPKLCFSSWGQGTQVTVSS
modifications: h_Nb1 Amino acid sequence of VHH
HEK293T/hPD-L1
  Binding activity with human PD-L1: good binding activity
[2]
  Blocking of human PD-1/PD-L1 binding: effectively block

B5: Nb10: anti-PD-L1 nanobody, VHH SEQ ID NO: 9 (protein)
VHH: QVQLQESGGGSVQAGGSLRLSCAASGYRFCRLAMRWYRQAPGKEREFVSFIDSGGTTSYADSVKGRFTISRDSAKNTVYLQMNSLKPEDTGMYYCNSDILGGGGGCPVSSYWGQGTQVTVSS
modifications: Nb10 Amino acid sequence of VHH
PD-1/PD-L1
  Blocking type or non-blocking type nanobody: blocking type

B6: h_Nb2: anti-human PD-L1 nanobody, VHH SEQ ID NO: 25 (protein)
VHH: DVQLQESGGGLVQPGGSLRLSCAASGFTFGDRWMYWLRQAPGKGLEWVSSINPAGRSTYYADSVKGRFTISRDNAKNTLYLQMNSLKSEDTAVYYCTKDPGGYQKGQGTQVTVSS
modifications: h_Nb2 Amino acid sequence of VHH
HEK293T/hPD-L1
  Binding activity with human PD-L1: good binding activity
[2]
  Blocking of human PD-1/PD-L1 binding: effectively block
